B1: Spectrin alpha chain, erythrocytic 1, residues 979 to 1036; numbered along this chain, P02549 (parent)
chain: EQRVMALYDFQARSPREVTMKKGDVLTLLSSINKDWWKVEAADHQGIVPAVYVRRLAH

± gives the uncertainty stated by the source.

The results in this text go back to the Human Domainome abundance scans (Beltran et al. 2025).

The variants in the data set derive from B1. Description: abundance fitness (aPCA) (normalised: wild type 0, dead -1); higher = more abundant; growth selection in yeast, the domain comes from the species named. The conditions noted are these: Homo sapiens.
EQRVMALYDFQARSPREVTMKKGDVLTLLSSIAKDWWKVEAADHQGIVPAVYVRRLAH [N33A]: the abundance fitness is -0.751 ± 0.17. Under EQRVMALYDFQARSPREVTMKKGDVLTLLSSILKDWWKVEAADHQGIVPAVYVRRLAH [N33L] stands -0.694 ± 0.29; under EQRVMALYDFQARSPREVTMKKGDVLTLLSSWNKDWWKVEAADHQGIVPAVYVRRLAH [I32W], 1.06 ± 0.31; under EQRVMALYDFQARSPREVTMKKGDVLTLLSSINKDWCKVEAADHQGIVPAVYVRRLAH [W37C], -0.386 ± 0.25. Under EQRVMALYDFQARSPREVTMKKGDVLTLLSSINKDWAKVEAADHQGIVPAVYVRRLAH [W37A] stands -0.848 ± 0.45; under EQRVMALYDFQARSPREVTMKKGDVLTLLSSINKDWDKVEAADHQGIVPAVYVRRLAH [W37D], -0.644 ± 0.23. Under EQRVMALYDFQARSPREVTMKKGDVLTLLSSINKDWGKVEAADHQGIVPAVYVRRLAH [W37G] stands -0.596 ± 0.31.

As to EQRVMALYDFQARSPREVTMKKGDVLTLLSSINKMWWKVEAADHQGIVPAVYVRRLAH [D35M], the abundance fitness is -0.535 ± 0.26. In the case of EQRVMALYDFQARSPREVTMKKGDVLTLLSSINKKWWKVEAADHQGIVPAVYVRRLAH [D35K] it was -0.027 ± 0.16; in that of EQRVMALYDFQARSPREVTMKKGDVLTLLSSINKTWWKVEAADHQGIVPAVYVRRLAH [D35T], -0.506 ± 0.27.

On to EQRVMALYDFQARSPREVTMKKGDVLTLLSSINKAWWKVEAADHQGIVPAVYVRRLAH [D35A], for which the abundance fitness was -0.541 ± 0.096.

Take EQRVMALYDFQARSPREVTMKKGDVLTLLSSINKEWWKVEAADHQGIVPAVYVRRLAH [D35E]: the abundance fitness was -0.364 ± 0.26.

For the variant EQRVMALYDFQARSPREVTMKKGDVLTLLSSINKSWWKVEAADHQGIVPAVYVRRLAH [D35S], the abundance fitness was -0.006 ± 0.18. Turning to EQRVMALYDFQARSPREVTMKKGDVLTLLSSINKPWWKVEAADHQGIVPAVYVRRLAH [D35P], the abundance fitness is -0.867 ± 0.42. Take EQRVMALYDFQARSPREVTMKKGDVLTLLSSINKNWWKVEAADHQGIVPAVYVRRLAH [D35N]: the abundance fitness is -0.182 ± 0.24. Under EQRVMALYDFQARSPREVTMKKGDVLTLLSSINKLWWKVEAADHQGIVPAVYVRRLAH [D35L] stands -0.685 ± 0.098; under EQRVMALYDFQARSPREVTMKKGDVLTLLSSINKVWWKVEAADHQGIVPAVYVRRLAH [D35V], -0.037 ± 0.14.

As to EQRVMALYDFQARSPREVTMKKGDVLTLLSSINKRWWKVEAADHQGIVPAVYVRRLAH [D35R], the abundance fitness was -0.326 ± 0.2. Under EQRVMALYDFQARSPREVTMKKGDVLTLLSSINKQWWKVEAADHQGIVPAVYVRRLAH [D35Q] stands -0.697 ± 0.31. Under EQRVMALYDFQARSPREVTMKKGDVLTLLTSINKDWWKVEAADHQGIVPAVYVRRLAH [S30T] stands -0.632 ± 0.22; under EQRVMALYDFQARSPREVTMKKGDVLTLLDSINKDWWKVEAADHQGIVPAVYVRRLAH [S30D], -0.013 ± 0.26.

Regarding EQRVMALYDFQARSPREVTMKKGDVLTLLCSINKDWWKVEAADHQGIVPAVYVRRLAH [S30C], the abundance fitness is -0.337 ± 0.28. Under EQRVMALYDFQARSPREVTMKKGDVLTLLYSINKDWWKVEAADHQGIVPAVYVRRLAH [S30Y] stands -0.108 ± 0.49; under EQRVMALYDFQARSPREVTMKKGDVLTLLESINKDWWKVEAADHQGIVPAVYVRRLAH [S30E], -0.066 ± 0.094. In the case of EQRVMALYDFQARSPREVTMKKGDVLTLLMSINKDWWKVEAADHQGIVPAVYVRRLAH [S30M], the abundance fitness is -0.463 ± 0.32.

For the variant EQRVMALYDFQARSPREVTMKKGDVLTLLVSINKDWWKVEAADHQGIVPAVYVRRLAH [S30V], the abundance fitness was -0.964 ± 0.28. Under EQRVMALYDFQARSPREVTMKKGDVLTLLKSINKDWWKVEAADHQGIVPAVYVRRLAH [S30K] stands -0.322 ± 0.26. Under EQRVMALYDFQARSPREVTMKKGDVLTLLLSINKDWWKVEAADHQGIVPAVYVRRLAH [S30L] stands -1.18 ± 0.29. Under EQRVMALYDFQARSPREVTMKKGDVLTLLASINKDWWKVEAADHQGIVPAVYVRRLAH [S30A] stands -0.657 ± 0.14; under EQRVMALYDFQARSPREVTMKKGDVLTLLGSINKDWWKVEAADHQGIVPAVYVRRLAH [S30G], -0.041 ± 0.14; under EQRVMALYDFQARSPREVTMKKGDVLTLLSYINKDWWKVEAADHQGIVPAVYVRRLAH [S31Y], -0.252 ± 0.17.

Regarding EQRVMALYDFQARSPREVTMKKGDVLTLLSKINKDWWKVEAADHQGIVPAVYVRRLAH [S31K], the abundance fitness was -0.179 ± 0.27.

On to EQRVMALYDFQARSPREVTMKKGDVLTLLSMINKDWWKVEAADHQGIVPAVYVRRLAH [S31M], for which the abundance fitness is -0.04 ± 0.22. Under EQRVMALYDFQARSPREVTMKKGDVLTLLSGINKDWWKVEAADHQGIVPAVYVRRLAH [S31G] stands -0.34 ± 0.11; under EQRVMALYDFQARSPREVTMKKGDVLTLLSLINKDWWKVEAADHQGIVPAVYVRRLAH [S31L], -0.38 ± 0.21.

Take EQRVMALYDFQARSPREVTMKKGDVLTLLSFINKDWWKVEAADHQGIVPAVYVRRLAH [S31F]: the abundance fitness is -0.47 ± 0.098. For the variant EQRVMALYDFQARSPREVTMKKGDVLTLLSEINKDWWKVEAADHQGIVPAVYVRRLAH [S31E], the abundance fitness is 0.518 ± 0.13. With EQRVMALYDFQARSPREVTMKKGDVLTLLSRINKDWWKVEAADHQGIVPAVYVRRLAH [S31R], the abundance fitness is -0.282 ± 0.082. For EQRVMALYDFQARSPREVTMKKGDVLTLLSCINKDWWKVEAADHQGIVPAVYVRRLAH [S31C], the abundance fitness was -0.157 ± 0.23. In the case of EQRVMALYDFQARSPREVTMKKGDVLTLLSQINKDWWKVEAADHQGIVPAVYVRRLAH [S31Q] it was 0.225 ± 0.17. Under EQRVMALYDFQARSPREVTMKKGDVLTLLSWINKDWWKVEAADHQGIVPAVYVRRLAH [S31W] stands -0.814 ± 0.12. Under EQRVMALYDFQARSPREVTMKKGDVLTLLSVINKDWWKVEAADHQGIVPAVYVRRLAH [S31V] stands 0.437 ± 0.098; under EQRVMALYDFQARSPREVTMKKGDVLTLLSIINKDWWKVEAADHQGIVPAVYVRRLAH [S31I], 0.495 ± 0.26; under EQRVMALYDFQARSPREVTMKKGDVLTLLSAINKDWWKVEAADHQGIVPAVYVRRLAH [S31A], 0.092 ± 0.06. For the variant EQRVMALYDFQARSPREVTMKKGDVLTLLSNINKDWWKVEAADHQGIVPAVYVRRLAH [S31N], the abundance fitness is -0.224 ± 0.5. Consider EQRVMALYDFQARSPREVTMKKGDVLTLLSDINKDWWKVEAADHQGIVPAVYVRRLAH [S31D], for which the abundance fitness was 0.673 ± 0.16.
